Results taken from article PMC2887044 (Journal of molecular biology, 2010).
Where two headings read alike, the source gives them in different places.

How the values were obtained:
Experiment in all cases: FRET or BRET
FRET or BRET [1] = target: the molecule itself
FRET or BRET [2] = target: the molecule itself; remark: listed apart in the source
FRET or BRET [3] = target: the molecule itself; remark: listed apart in the source

B1: Alexa-labelled apoC-II S61C (Alexa-488 apoC-II; Alexa-594 apoC-II) (natural protein, human, UniProt P02655 23-101, looked up)
chain: TQQPQQDEMPSPTFLTQVKESLSSYWESAKTAAQNLYEKTYLPAVDEKLRDLYSKSTAAMCTYTGIFTDQVLSVLKGEE
modifications: conjugated with Alexa dyes (Alexa 488 C5 maleimide or Alexa 594 C5 maleimide)
B1 gave a koff (FRET or BRET [1]) of 0.0125 s⁻¹, a koff (FRET or BRET [2]) of 0.161 s⁻¹ and a koff (FRET or BRET [3]) of 0.00639 s⁻¹.
